Measured values published in the DeepSol protein solubility set.

Test: soluble on expression in E. coli; label from the status in PepcDB or PDB records
In the case of “MKTVVFAYHDMGCLGIEALLAAGYEISAIFTHTDNPGEKAFYGSVARLAAERGIPVYAPDNVNHPLWVERIAQLSPDVIFSFYYRHLIYDEILQLAPAGAFNLHGSLLPKYRGRAPLNWVLVNGETETGVTLHRMVKRADAGAIVAQLRIAIAPDDIAITLHHKLCHAARQLLEQTLPAIKHGNILEIAQRENEATCFGRRTPDDSFLEWHKPASVLHNMVRAVADPWPGAFSYVGNQKFTVWSSRVHPHASKAQPGSVISVAPLLIACGDGALEIVTGQAGDGITMQGSQLAQTLGLVQGSRLNSQPACTARRRTRVLILGVNGFIGNHLTERLLREDHYEVYGLDIGSDAISRFLNHPHFHFVEGDISIHSEWIEYHVKKCDVVLPLVAIATPIEYTRNPLRVFELDFEENLRIIRYCVKYRKRIIFPSTSEVYGMCSDKYFDEDHSNLIVGPVNKPRWIYSVSKQLLDRVIWAYGEKEGLQFTLFRPFNWMGPRLDNLNAARIGSSRAITQLILNLVEGSPIKLIDGGKQKRCFTDIRDGIEALYRIIENAGNRCDGEIINIGNPENEASIEELGEMLLASFEKHPLRHHFPPFAGFRVVESSSYYGKGYQDVEHRKPSIRNAHRCLDWEPKIDMQETIDETLDFFLRTVDLTDKPS”, the “soluble on expression in E. coli” value is reported as “soluble”.
With “SDLFTDGDIFQDIVDAACKRRVPVYIILDEGGVKYFLEMCQGLELADFRIRNIRVRSVTGIGFYMPMGKIKGTLSSKFLMVDGDKVATGSFSFTWSSSYVDRNLLLLLTGQNMEPFDIEFRELYAISEEVNLHQHLGLAGRIGLNYSSTVARKLINPKYALVAGTRRPPGEMMRWAARQQREAGGNVEGQEEGSGGGESARRLESFLNDLVTVEQILPTVEPISPRLQRPTNGRPVSHAHTDAKHRSREALPQNGKGEAANGEATPAKEGKRFSSRLFSRRVKRPAVPSSMASSPSTETFADVEFPLGKRHNEGSNANISGKGITKASNCVIS” the “soluble on expression in E. coli” value was “soluble”.
With “PMMPPVGVQASILSHDTIRITWADNSLPKHQKITDSRYYTVRWKTNIPANTKYKNANATTLSYLVTGLKPNTLYEFSVMVTKGRRSSTWSMTAHGTTFEL” the “soluble on expression in E. coli” value was “soluble”.
For “GSHMASMTGGQQMGRGSEFKKYLETNGIKPKQFHKKELIFNQWDPQEYCIFLYDGITKLTSISENGTIMNLQYYKGAFVIMSGFIDTETSVGYYNLEVISEQATAYVIKINELKELLSKNLTHFFYVFQTLQKQVSYSLAKFNDFSINGKLGSICGQLLILTYVYGKETPDGIKITLDNLTMQELGYSSGIAHSSAVSRIISKLKQEKVIVYKNSCFYVQNLDYLKRYAPKLDEWFYLACPATWGKLN”, the “soluble on expression in E. coli” value was “soluble”.
In the case of “MAHHHHHHSTLRHSHEPSPYVQKGEDLSGQKLTPTIKSYRNMEFLNSYSGRMIRILCEFEEPKQRLQQHFIRTTVLFFGSARSMTQAQYDSTVQDIHSKLAAATDDSTKASLQNKLACLKKTQWMCKWVDVVENLARMVAEFSQKEQDMIIRSFRHIPDYFRLTPEDGSESLDDLQKRFHDLVVTTGGGPGFMEAANHGAESVPGAVTMGMGISLPFENGLNPHVTKGLAFEFHYFFTRKFWMMYSCRAIVIAPGGFGTLDEMFELLTLKQTKKIPSLPVVLLGKEFWQTVVNWQALANYGVISQEEIDSLLFTDSAEEAVEHIKDFYHRLASDSPSTE”, the “soluble on expression in E. coli” value is reported as “soluble”.
In the case of “MILNIRDHYLPREYWKYISLHRGPIYGYKLEAYIGADNCIHYKEIPKNPDDTLRENETIYI”, the “soluble on expression in E. coli” value is reported as “not soluble”.
For “MGRKWANIVAKKTAKDGATSKIYAKFGVEIYAAAKQGEPDPELNTSLKFVIERAKQAQVPKHVIDKAIDKAKGGGDETFVQGRYEGFGPNGSMIIAETLTSNVNRTIANVRTIFNKKGGNIGAAGSVSYMFDNTGVIVFKGTDPDHIFEILLEAEVDVRDVTEEEGNIVIYTEPTDLHKGIAALKAAGITEFSTTELEMIAQSEVELSPEDLEIFEGLVDALEDDDDVQKVYHNVANL”, the “soluble on expression in E. coli” value was “soluble”.
For “MAHHHHHHMATPRHGDLDSICSLSSSENSPRGGGQSSERLIDLLTRPCAQGGYGGRLNYTGFATLAASLGWNQEDMDDCWYDIVMGEPCAEAVDMKRVAECVCSYCLASPLPILEHSTLAKSSAAKPATPPRLPHASRERSTTVLLSPPTPRFRRAESVASTLPKTGDKQRVTTATASPSQACAHRRCTAPNVFPRYAVETVSSEQKKASLSPGRGSHRPHNRRTTAKSSRQTSPAPTLSQTSGPSGCSVFSRLYEKGMEQHRKRIAVKPVDSDAAECTFQPHITPYTPKAADTASVHYNKPTESYFAKLTAPGTPPDAICASPETPRVTYHPAPGPSSDVPAGYVEGVARLRSYIASRYAHATFASSLRGSSSADVAHLVEAPILRLPVTVRGVTDAVDVRLASPDTRASLGRECSVGPRRPCFRQRCEARHVSFPSPSRVRFQS”, the “soluble on expression in E. coli” value was “soluble”.
With “MGTVHARSLDPLPMNGPDFGSPDDADLVEVEPQKKQEILENKDVVVQRVHFEGLGRTKDDLVAHEIGQVFKAKNLIEVMRKSHEAREKLLRLGVFRNVEVLIDTCEGEDAVPNGLDVTFEVTELRRVTGSYNTMVGNNEGSMVLGLKLPNLFGRAEKMTFQFSYGTKETSYGLSFFKPQVGNFERNFSVNLYKVTGQFPWSSLRETDRGVSAEINFPIWKTSHTLKWEGVWRELGCLARTASFTIREESGHTLKSSLSHSMVIDSRNASILPKSGALLKINQELAGYTGGDVSFLKEDFELQLNRQLTWDSVLSTSLWGGMLVPIGDRPSSIADRFYLGGPTSVRGFSMYSIGPQSEGDYLGGEAYWAGGVHLYTPLPFRPGRGGFGDLFRTHFFLNAGNLCNLNYGEGPGAHLRRLAECIRWSYGAGLVLRLGNIARLELNYCIPMGVQSGDRICDGVQFGAGIRFL” the “soluble on expression in E. coli” value was “soluble”.
In the case of “MISNRILQTTVDGLKAISRVDLCIVDADKNVAAKTFDNVSECLADAISFIDSPAESQAVNGFQFFKVEDEGNLEYIIMARGTSDDVYMVGKLAAFQIQNLLVAYKERFDKDNFIKNLLLDNLLRVDMYTRAEKLHIETDVKRVVYIIETKHEKDTSALETVRTLFANKTRDFITAVDEKSIILVKEVKGNESYDELDKTADVIIDMLNTEAMSAAHVAYGTIVNDIREVSRSYKEAKMALDVGKIFYSNKNVVAYNRLGIGRLIYQLPIPLCQMFIKEIFEGKAPDDFDDETLSTINKFFENSLNVSETSRQLYIHRNTLVYRLDKIQKITGLDLRVFDDAITFKIALMVVKYMKYMESKDTF”, the “soluble on expression in E. coli” value is reported as “not soluble”.
With “MYNNEPGAQSDPTLGYTFQNDFLALSQAFSLPEIDYTDISQREQLAAAIKRWPLLAEFAQPHSLRKP” the “soluble on expression in E. coli” value was “not soluble”.
With “MAGHQISFAKEVQPIIETKCLSCHSCFDAPCQLKLESAESLLRGASQEPVYSSARTTEMKPTRLGIDELTVAGWRKRGFYSVLQSDREHAQSLLKNMITLGKQYPFPPNSKLPDSIKTGFARKNQCVSEEEFPGYAHDHPFEGMPFGTSGLTDREYSLLAGWLNQGAAVTDEPVTLTRDEEQTIRTWETLFNRDDKRGRLVARWLYEHLFLAYLYFPEAGDEPRFFELLRSSTPSGEAIIPVATVSPNSDPGGPFFYRLRPISGTIVHKRRISYPLDQMKLRRISELFFSEDWPVGDLPGYDYTERSNPFVTFAAIPARARYQFMLDEAEYFVRTFIHGPVCRGQIATDVIRDHFWTLFQSPESDLFITADTYRRQAIPLLGIPGQDDDLLDAGENWLRYLKRHNDYLALRQQHYVAQQPQGASLAHIWNGDGHNENALLTIFRHHNSASVVRGLAGAVPQTIWLMDYPLLEQTYYQLVVNFNVFGNVAHQVLTRLYFDLIRNGSEQNFVRLLPAGQRKTILNDWYQDLGKLKFGIVYEDIDDRSPSAERFVTENPKLELASHMLERFQSINTLSHDPLNRCEQGNCSRIDQPHWIQQADRALSGIAAQPAASLPGISLLPEVTFVRVQHGQNERTVYTLLRDRAHSNVAFMLGEELRYQPEKDRVTVYPGITGSYPNFMFDVPAAQVGEFVAKLSKAGKIKDFEQIVETWGIRRTHPQFWEILHDITAWQKQQQPLQAGIFDINRYENFLEHHHHHH” the “soluble on expression in E. coli” value was “not soluble”.
With “MARGPGPLGMPRPDTVAMPKRGKRLKFRAHDACSGRVTVADYANSDPAVVRSGRVKKAIANAVQQEVKSLCGLEASQVPAEEALSGAGEPCDIIDSSDEMDAQEESIHERTVSRKKKSKRHKEELDGAGGEEYPMDIWLLLASYIRPEDIVNFSLICKNAWTVTCTAAFWTRLYRRHYTLDASLPLRLRPESMEKLRCLRACVIRSLYHMYEPFAARISKNPAIPESTPSTLKNSK” the “soluble on expression in E. coli” value was “not soluble”.
